Measurements taken from US20240376208A1 (AFFIMED, published 2024).
Read-outs that look alike come from different tables or passages of the source.

Tests used:
[1] = biological target: T1, EGFR on tumor target cells (MCF-7, Daudi, DK-MG, HCT-116) (UniProt P00533 25-1210, limits assumed); assay: cell-based or functional assay
[2] = biological target: CD16A on primary human NK cells (human, UniProt P08637 17-254); assay: cell-based or functional assay
[3] = biological target: T1, EGFR on tumor target cells (MCF-7, …); assay: cell-based or functional assay; remark: listed apart in the source
[4] = biological target: T1, EGFR on tumor target cells (MCF-7, …); assay: cell-based or functional assay; remark: listed apart in the source
[5] = biological target: T2, biotinylated monomeric CD16A antigen (human, UniProt P08637 17-208, limits assumed, biotinylated (site not stated)); assay: ELISA, biotinylated monomeric CD16A titrated on construct captured by coated His-tagged human EGFR extracellular domain
T2 construct: Soluble antigen; also called soluble CD16A antigen
Procedure: (§1) For the capturing approach, 96-well ELISA plates (Immuno Maxisorp, Nunc) were coated overnight at 4° C. with His-tagged human EGFR or BCMA extracellular domain at concentrations of 3.0 or 0.4 μg/mL, respectively. After blocking with 3% (w/v) skimmed milk powder dissolved in phosphate buffered saline (PBS), antigen coated plates were used for capturing of different multivalent bispecific engagers at concentrations of 3-5 μg/mL in PBS containing 0.3% (w/v) skimmed milk powder. After washing three times with 300 μL per well of PBS containing 0.1% (v/v) Tween 20, plates were incubated with serial dilutions of biotinylated dimeric or monomeric CD16A antigen in PBS containing 0.3% (w/v) skimmed milk powder for 1.5 h at room temperature. After washing, plates were incubated with the detection conjugate Streptavidin HRP, 1:10,000 diluted in PBS containing 0.3% (w/v) skimmed milk powder for 1 h followed by washing and incubation with tetramethylbenzidine substrate (Seramun) for 1-2 min. Reaction was stopped by addition of 0.5 M H₂SO₄ (100 μL/well). Absorbance was measured at 450 nm using a multiwell plate reader, plotted and EC₅₀ values were determined by fitting a nonlinear regression model to sigmoidal dose-response curves (four parameters logistic fit) using GraphPad Prism software.
(§2) Concentration dependent binding of antibody constructs to coated recombinant CD16A antigen, or of soluble monomeric or dimeric CD16 antigen variants to coated or target antigen captured antibody constructs was analyzed in ELISA. Half maximal binding concentrations (EC₅₀) were determined by fitting a nonlinear regression model to sigmoidal dose-response curves (four parameters logistic fit) using GraphPad Prism software.

[6] = biological target: T3, biotinylated dimeric CD16A antigen (human, UniProt P08637 17-208, limits assumed, biotinylated (site not stated)); assay: ELISA, biotinylated dimeric CD16A titrated on coated construct
T3 construct: Soluble antigen; also called soluble CD16A antigen
Procedure: as §1, §2

[7] = biological target: T2, biotinylated monomeric CD16A antigen; assay: ELISA, biotinylated monomeric CD16A titrated on coated construct
Procedure: as §1, §2

[8] = biological target: T3, biotinylated dimeric CD16A antigen; assay: ELISA, biotinylated dimeric CD16A titrated on construct captured by coated His-tagged human EGFR extracellular domain
Procedure: as §1, §2

[9] = biological target: T4, recombinant CD16A 158F fused to monomeric human Fc (human, UniProt P08637 17-208); assay: ELISA, construct titrated on coated CD16A 158F fused to monomeric human Fc
T4 construct: also called recombinant CD16 antigen variant; not shown: monomeric human Fc
Procedure: To assess binding of EGFR/CD16 or BCMA/CD16 antibodies to coated antigen in ELISA, 96-well ELISA plates (Immuno Maxisorp, Nunc) were coated overnight at 4° C. with recombinant CD16 antigen variants fused to monomeric human Fc at a concentration of 1.5 μg/mL in 100 mM carbonate-bicarbonate buffer. After blocking with 3% (w/v) skimmed milk powder dissolved in phosphate buffered saline (PBS) serial dilutions of bispecific antibody constructs were incubated on the antigen coated plates for 1.5 h at room temperature. […] After washing, plates were incubated with tetramethylbenzidine substrate (Seramun) for 1-2 min. Reaction was stopped by addition of 0.5 M H₂SO₄ (100 μL/well). Absorbance was measured at 450 nm using a multiwell plate reader, plotted and EC₅₀ values were determined by fitting a nonlinear regression model to sigmoidal dose-response curves (four parameters logistic fit) using GraphPad Prism software.
as §2

[10] = biological target: recombinant CD16A 158V fused to monomeric human Fc (human, UniProt P08637 17-208); assay: ELISA, construct titrated on coated CD16A 158V fused to monomeric human Fc
Chain of recombinant CD16A 158V fused to monomeric human Fc (P08637 17-208 F176V): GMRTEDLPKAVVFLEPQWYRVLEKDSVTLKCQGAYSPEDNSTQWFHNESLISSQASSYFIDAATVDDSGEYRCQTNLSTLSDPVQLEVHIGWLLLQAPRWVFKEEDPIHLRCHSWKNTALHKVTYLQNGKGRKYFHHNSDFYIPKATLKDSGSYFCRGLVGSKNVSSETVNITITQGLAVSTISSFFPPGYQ

Chain of CD16A on primary human NK cells (P08637 17-254 limits assumed): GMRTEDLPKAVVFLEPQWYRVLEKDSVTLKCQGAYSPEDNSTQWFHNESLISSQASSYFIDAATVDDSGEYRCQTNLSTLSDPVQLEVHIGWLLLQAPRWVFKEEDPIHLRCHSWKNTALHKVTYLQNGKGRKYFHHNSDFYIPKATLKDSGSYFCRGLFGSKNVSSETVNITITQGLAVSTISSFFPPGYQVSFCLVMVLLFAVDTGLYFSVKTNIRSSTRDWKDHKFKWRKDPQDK
T2 sequence (P08637 17-208 limits assumed): as the sequence (P08637 17-208 F176V) above, with V160F counted along it
T3 sequence (P08637 17-208 limits assumed): as the sequence (P08637 17-208 F176V) above, with V160F counted along it
T4 sequence (P08637 17-208): as the sequence (P08637 17-208 F176V) above, with V160F counted along it

Binder | Emax [%], 4 h calcein-release cytotoxicity on Daudi target cells, NK cells E:T 5:1 [1] | EC50 [pM], 4 h calcein-release NK cell fratricide assay, E:T 1:1 [2] | Emax [%], 4 h calcein-release NK cell fratricide assay, E:T 1:1 [2] | EC50 [pM], 4 h calcein-release cytotoxicity on MCF-7 target cells, NK cells E:T 5:1 [3] | Emax [%], 4 h calcein-release cytotoxicity on MCF-7 target cells, NK cells E:T 5:1 [3] | EC50 [pM], 4 h calcein-release cytotoxicity on Daudi target cells, NK cells E:T 5:1 [4] | Emax [%], 4 h calcein-release cytotoxicity on Daudi target cells, NK cells E:T 5:1 [4] | EC50 [5] | EC50 [6] | EC50 [7] | EC50 [8] | EC50 [9] | EC50 [10]
scFv-Fc-scDb_04 (bispecific antibody) QVQLQESGPGLVKPSETLSLTCTVSGGSVSSGSYYWSWIRQPPGKGLEWIGYIYYSGSTNYNPSLKSRVTISVDTSKNQFSLKLSSVTAADTAVYYCARNPISIPAFDIWGQGTMVTVSSGGSGGSGGSGGSGGSGGSQPVLTQPPSVSVAPGKTARITCGGNNIGSKSVHWYQQKPGQAPVLVIYYDSDRPSGIPERFSGSNSGNTATLTISRVEAGDEADYYCQVWDTSSDHVLFGGGTKLTVLGGGGSDKTHTCPPCPAPEFEGGPSVFLFPPKPKDTLMISRTPEVTCVVVAVSHEDPEVKFNWYVDGVEVHNAKTKPREEQYGSTYRVVSVLTVLHQDWLNGKEYKCKVSNKALPAPIEKTISKAKGQPREPQVYTLPPSREEMTKNQVSLTCLVKGFYPSDIAVEWESNGQPENNYKTTPPVLDSDGSFFLYSKLTVDKSRWQQGNVFSCSVMHEALHNHYTQKSLSLSPGGGGGSGGGGSSYELTQPLSVSVALGQTARITCGGHNIGSKNVHWYQQKPGQAPVLVIYQDNKRPSGIPERFSGSNSGNTATLTISRAQAGDEADYYCQVWDNYNVLFGCGTKLTVLGGSGGSQVQLVQSGAEVKKPGASVKVSCKASGYTFTSYYMHWVRQAPGQCLEWMGAIEPTYGSTSYAQKFQGRVTMTRDTSTSTVYMELSSLRSEDTAVYYCARGSAYYYDFADYWGQGTLVTVSSGGSGGSGGSGGSGGSGGSSYELTQPLSVSVALGQTARITCGGHNIGSKNVHWYQQKPGQAPVLVIYQDNKRPSGIPERFSGSNSGNTATLTISRAQAGDEADYYCQVWDNYNVLFGCGTKLTVLGGSGGSQVQLVQSGAEVKKPGASVKVSCKASGYTFTSYYMHWVRQAPGQCLEWMGAIEPTYGSTSYAQKFQGRVTMTRDTSTSTVYMELSSLRSEDTAVYYCARGSAYYYDFADYWGQGTLVTVSS | 22.6% | – | – | – | – | – | – | – | – | – | – | – | –
scFv-IgAb_43 (bispecific antibody) heavy: QVQLQESGPGLVKPSETLSLTCTVSGGSVSSGSYYWSWIRQPPGKGLEWIGYIYYSGSTNYNPSLKSRVTISVDTSKNQFSLKLSSVTAADTAVYYCARNPISIPAFDIWGQGTMVTVSSASTKGPSVFPLAPSSKSTSGGTAALGCLVKDYFPEPVTVSWNSGALTSGVHTFPAVLQSSGLYSLSSVVTVPSSSLGTQTYICNVNHKPSNTKVDKKVEPKSCDKTHTCPPCPAPEFEGGPSVFLFPPKPKDTLMISRTPEVTCVVVAVSHEDPEVKFNWYVDGVEVHNAKTKPREEQYNSTYRVVSVLTVLHQDWLNGKEYKCKVSNKALPAPIEKTISKAKGQPREPQVYTLPPSREEMTKNQVSLTCLVKGFYPSDIAVEWESNGQPENNYKTTPPVLDSDGSFFLYSKLTVDKSRWQQGNVFSCSVMHEALHNHYTQKSLSLSPGGGGGSGGGGSGGGGSGGGGSGGGGSGGGGSSYVLTQPSSVSVAPGQTATISCGGHNIGSKNVHWYQQRPGQSPVLVIYQDNKRPSGIPERFSGSNSGNTATLTISGTQAMDEADYYCQVWDNYSVLFGGGTKLTVLGGSGGSGGSGGSGGSGGSGGSQVQLVQSGAEVKKPGESLKVSCKASGYTFTSYYMHWVRQAPGQGLEWMGAIEPMYGSTSYAQKFQGRVTMTRDTSTSTVYMELSSLRSEDTAVYYCARGSAYYYDFADYWGQGTLVTVSS light: QPVLTQPPSVSVAPGKTARITCGGNNIGSKSVHWYQQKPGQAPVLVIYYDSDRPSGIPERFSGSNSGNTATLTISRVEAGDEADYYCQVWDTSSDHVLFGGGTKLTVLGQPKAAPSVTLFPPSSEELQANKATLVCLISDFYPGAVTVAWKADSSPVKAGVETTTPSKQSNNKYAASSYLSLTPEQWKSHRSYSCQVTHEGSTVEKTVAPTECS | 9.3% | 3510 pM | 6.9% | 9.2 pM | 16.2% | 151 pM | 10% | – | – | – | – | – | –
aBi-scDb-Fc_05 (bispecific antibody, Asymmetric knob/hole Fc construct with four anti-CD16A Fv domains and only one anti-EGFR Fv domain; all other places print 158 and 159) chain 1: DKTHTCPPCPAPEFEGGPSVFLFPPKPKDTLMISRTPEVTCVVVAVSHEDPEVKFNWYVDGVEVHNAKTKPREEQYNSTYRVVSVLTVLHQDWLNGKEYKCKVSNKALPAPIEKTISKAKGQPREPQVYTLPPSREEMTKNQVSLTCLVKGFYPSDIAVEWESNGQPENNYKTTPPVLDSDGSFFLTSKLTVDKSRWQQGNVFSCSVMHEALHNHYTQKSLSLSPGGGGGSGGGGSSYVLTQPSSVSVAPGQTATISCGGHNIGSKNVHWYQQRPGQSPVLVIYQDNKRPSGIPERFSGSNSGNTATLTISGTQAMDEADYYCQVWDNYSVLFGGGTKLTVLGGSGGSQVQLVQSGAEVKKPGESLKVSCKASGYTFTSYYMHWVRQAPGQGLEWMGAIEPMYGSTSYAQKFQGRVTMTRDTSTSTVYMELSSLRSEDTAVYYCARGSAYYYDFADYWGQGTLVTVSSGGSGGSGGSGGSGGSGGSSYVLTQPSSVSVAPGQTATISCGGHNIGSKNVHWYQQRPGQSPVLVIYQDNKRPSGIPERFSGSNSGNTATLTISGTQAMDEADYYCQVWDNYSVLFGGGTKLTVLGGSGGSQVQLVQSGAEVKKPGESLKVSCKASGYTFTSYYMHWVRQAPGQGLEWMGAIEPMYGSTSYAQKFQGRVTMTRDTSTSTVYMELSSLRSEDTAVYYCARGSAYYYDFADYWGQGTLVTVSSAAAGSHHHHHH chain 2: QVQLQESGPGLVKPSETLSLTCTVSGGSVSSGSYYWSWIRQPPGKGLEWIGYIYYSGSTNYNPSLKSRVTISVDTSKNQFSLKLSSVTAADTAVYYCARNPISIPAFDIWGQGTMVTVSSGGSGGSGGSGGSGGSGGSQPVLTQPPSVSVAPGKTARITCGGNNIGSKSVHWYQQKPGQAPVLVIYYDSDRPSGIPERFSGSNSGNTATLTISRVEAGDEADYYCQVWDTSSDHVLFGGGTKLTVLDKTHTCPPCPAPEFEGGPSVFLFPPKPKDTLMISRTPEVTCVVVAVSHEDPEVKFNWYVDGVEVHNAKTKPREEQYNSTYRVVSVLTVLHQDWLNGKEYKCKVSNKALPAPIEKTISKAKGQPREPQVYTLPPSREEMTKNQVSLYCLVKGFYPSDIAVEWESNGQPENNYKTTPPVLDSDGSFFLYSKLTVDKSRWQQGNVFSCSVMHEALHNHYTQKSLSLSPGGGGGSGGGGSSYVLTQPSSVSVAPGQTATISCGGHNIGSKNVHWYQQRPGQSPVLVIYQDNKRPSGIPERFSGSNSGNTATLTISGTQAMDEADYYCQVWDNYSVLFGGGTKLTVLGGSGGSQVQLVQSGAEVKKPGESLKVSCKASGYTFTSYYMHWVRQAPGQGLEWMGAIEPMYGSTSYAQKFQGRVTMTRDTSTSTVYMELSSLRSEDTAVYYCARGSAYYYDFADYWGQGTLVTVSSGGSGGSGGSGGSGGSGGSSYVLTQPSSVSVAPGQTATISCGGHNIGSKNVHWYQQRPGQSPVLVIYQDNKRPSGIPERFSGSNSGNTATLTISGTQAMDEADYYCQVWDNYSVLFGGGTKLTVLGGSGGSQVQLVQSGAEVKKPGESLKVSCKASGYTFTSYYMHWVRQAPGQGLEWMGAIEPMYGSTSYAQKFQGRVTMTRDTSTSTVYMELSSLRSEDTAVYYCARGSAYYYDFADYWGQGTLVTVSSGAAEPEA | – | – | 27.1% | 5 pM | 34.2% | 39.9 pM | 27.2% | 5.54 nM | 0.99 nM | 4.51 nM | 3 nM | 0.2 nM | 0.16 nM
